Test results reported in article PMC9464592 (Nature, 2022).
Where a chain is given by its changes, count along the chain named. Names may count otherwise.

Legend:
[1] = target: T1, tag-free WDR59 (human, UniProt Q6PJI9 1-974); assay: SEC
T1 sequence: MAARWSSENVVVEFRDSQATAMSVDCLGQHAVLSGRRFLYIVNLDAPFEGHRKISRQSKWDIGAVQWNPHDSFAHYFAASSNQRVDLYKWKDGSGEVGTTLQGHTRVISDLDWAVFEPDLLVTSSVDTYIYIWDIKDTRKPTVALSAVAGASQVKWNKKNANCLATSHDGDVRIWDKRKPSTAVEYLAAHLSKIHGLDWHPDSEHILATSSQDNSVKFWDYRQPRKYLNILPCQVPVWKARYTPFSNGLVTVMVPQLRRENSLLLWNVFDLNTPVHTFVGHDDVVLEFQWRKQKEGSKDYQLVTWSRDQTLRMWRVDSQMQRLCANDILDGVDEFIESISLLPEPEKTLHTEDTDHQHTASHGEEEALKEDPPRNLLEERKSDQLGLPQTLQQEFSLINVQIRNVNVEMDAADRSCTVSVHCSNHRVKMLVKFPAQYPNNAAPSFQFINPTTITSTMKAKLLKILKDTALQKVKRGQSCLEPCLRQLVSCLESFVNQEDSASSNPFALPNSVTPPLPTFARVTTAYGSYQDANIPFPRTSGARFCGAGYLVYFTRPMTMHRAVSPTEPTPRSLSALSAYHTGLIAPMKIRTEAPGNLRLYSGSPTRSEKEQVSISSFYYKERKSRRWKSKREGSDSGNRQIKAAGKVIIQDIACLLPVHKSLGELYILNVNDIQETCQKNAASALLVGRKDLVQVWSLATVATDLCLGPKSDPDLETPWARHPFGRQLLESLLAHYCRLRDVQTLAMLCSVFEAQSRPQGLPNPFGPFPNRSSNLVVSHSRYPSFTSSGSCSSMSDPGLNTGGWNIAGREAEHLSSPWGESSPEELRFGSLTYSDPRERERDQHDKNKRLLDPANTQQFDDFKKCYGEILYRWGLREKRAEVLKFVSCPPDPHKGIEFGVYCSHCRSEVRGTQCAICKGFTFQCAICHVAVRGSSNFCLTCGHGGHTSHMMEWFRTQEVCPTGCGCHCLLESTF

[2] = target: T1, tag-free WDR59; assay: cryo-EM structure

B1: WDR24 ∆CTD (domain or fragment, human, UniProt Q96S15 1-700, looked up)
chain: MEKMSRVTTALGGSVLTGRTMHCHLDAPANAISVCRDAAQVVVAGRSIFKIYAIEEEQFVEKLNLRVGRKPSLNLSCADVVWHQMDENLLATAATNGVVVTWNLGRPSRNKQDQLFTEHKRTVNKVCFHPTEAHVLLSGSQDGFMKCFDLRRKDSVSTFSGQSESVRDVQFSIRDYFTFASTFENGNVQLWDIRRPDRCERMFTAHNGPVFCCDWHPEDRGWLATGGRDKMVKVWDMTTHRAKEMHCVQTIASVARVKWRPECRHHLATCSMMVDHNIYVWDVRRPFVPAAMFEEHRDVTTGIAWRHPHDPSFLLSGSKDSSLCQHLFRDASQPVERANPEGLCYGLFGDLAFAAKESLVAAESGRKPYTGDRRHPIFFKRKLDPAEPFAGLASSALSVFETEPGGGGMRWFVDTAERYALAGRPLAELCDHNAKVARELGRNQVAQTWTMLRIIYCSPGLVPTANLNHSVGKGGSCGLPLMNSFNLKDMAPGLGSETRLDRSKGDARSDTVLLDSSATLITNEDNEETEGSDVPADYLLGDVEGEEDELYLLDPEHAHPEDPECVLPQEAFPLRHEIVDTPPGPEHLQDKADSPHVSGSEADVASLAPVDSSFSLLSVSHALYDSRLPPDFFGVLVRDMLHFYAEQGDVQMAVSVLIVLGERVRKDIDEQTQEHWYTSYIDLLQRFRLWNVSNEVVKLS
Q: Does B1 bind [1]?
A: Result: binds

B2: MIOS A560E (natural protein, human)
chain: MSGTKPDILWAPHHVDRFVVCDSELSLYHVESTVNSELKAGSLRLSEDSAATLLSINSDTPYMKCVAWYLNYDPECLLAVGQANGRVVLTSLGQDHNSKFKDLIGKEFVPKHARQCNTLAWNPLDSNWLAAGLDKHRADFSVLIWDICSKYTPDIVPMEKVKLSAGETETTLLVTKPLYELGQNDACLSLCWLPRDQKLLLAGMHRNLAIFDLRNTSQKMFVNTKAVQGVTVDPYFHDRVASFYEGQVAIWDLRKFEKPVLTLTEQPKPLTKVAWCPTRTGLLATLTRDSNIIRLYDMQHTPTPIGDETEPTIIERSVQPCDNYIASFAWHPTSQNRMIVVTPNRTMSDFTVFERISLAWSPITSLMWACGRHLYECTEEENDNSLEKDIATKMRLRALSRYGLDTEQVWRNHILAGNEDPQLKSLWYTLHFMKQYTEDMDQKSPGNKGSLVYAGIKSIVKSSLGMVESSRHNWSGLDKQSDIQNLNEERILALQLCGWIKKGTDVDVGPFLNSLVQEGEWERAAAVALFNLDIRRAIQILNEGASSEKGDLNLNVVAMELSGYTDEKNSLWREMCSTLRLQLNNPYLCVMFAFLTSETGSYDGVLYENKVAVRDRVAFACKFLSDTQLNRYIEKLTNEMKEAGNLEGILLTGLTKDGVDLMESYVDRTGDVQTASYCMLQGSPLDVLKDERVQYWIENYRNLLDAWRFWHKRAEFDIHRSKLDPSSKPLAQVFVSCNFCGKSISYSCSAVPHQGRGFSQYGVSGSPTKSKVTSCPGCRKPLPRCALCLINMGTPVSSCPGGTKSDEKVDLSKDKKLAQFNNWFTWCHNCRHGGHAGHMLSWFRDHAECPVSACTCKCMQLDTTGNLVPAETVQP
Q: Does B2 bind [1]?
A: Result: binds

B3: N-terminally Flag-tagged MIOS (natural protein, human)
chain: B2 chain with E560A
Q: Does B3 bind [2]?
A: Result: binds
